Data on two proteins can be found in US20030017160.

One data set addresses T1, GST-Cdc25C, P30307.
T1 chain: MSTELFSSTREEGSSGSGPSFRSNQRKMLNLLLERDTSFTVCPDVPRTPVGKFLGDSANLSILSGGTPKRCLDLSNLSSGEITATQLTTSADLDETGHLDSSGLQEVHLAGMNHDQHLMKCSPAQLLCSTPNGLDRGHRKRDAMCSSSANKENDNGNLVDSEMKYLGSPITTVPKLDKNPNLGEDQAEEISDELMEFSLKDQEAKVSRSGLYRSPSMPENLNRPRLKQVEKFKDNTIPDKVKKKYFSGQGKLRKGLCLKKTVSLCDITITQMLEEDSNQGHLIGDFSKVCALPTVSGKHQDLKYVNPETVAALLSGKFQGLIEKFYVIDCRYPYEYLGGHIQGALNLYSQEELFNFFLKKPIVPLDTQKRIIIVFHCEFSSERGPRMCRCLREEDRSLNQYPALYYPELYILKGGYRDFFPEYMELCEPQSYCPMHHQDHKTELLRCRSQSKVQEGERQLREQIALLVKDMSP

Chain of 6his-Cdc2, P06493 (P06493 whole entry, looked up): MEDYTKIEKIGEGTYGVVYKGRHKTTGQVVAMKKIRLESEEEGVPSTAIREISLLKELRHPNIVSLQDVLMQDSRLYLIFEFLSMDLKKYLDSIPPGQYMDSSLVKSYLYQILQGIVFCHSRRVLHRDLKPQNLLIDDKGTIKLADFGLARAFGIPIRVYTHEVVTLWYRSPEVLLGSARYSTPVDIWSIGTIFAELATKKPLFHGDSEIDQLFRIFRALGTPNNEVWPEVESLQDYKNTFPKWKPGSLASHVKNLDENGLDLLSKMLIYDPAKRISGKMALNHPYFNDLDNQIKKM

B1: 6his-Chk1 (protein)
chain: MAVPFVEDWDLVQTLGEGAYGEVQLAVNRVTEEAVAVKIVDMKRAVDCPENIKKEICINKMLNHENVVKFYGHRREGNIQYLFLEYCSGGELFDRIEPDIGMPEPDAQRFFHQLMAGVVYLHGIGITHRDIKPENLLLDERDNLKISDFGLATVFRYNNRERLLNKMCGTLPYVAPELLKRREFHAEPVDVWSCGIVLTAMLAGELPWDQPSDSCQEYSDWKEKKTYLNPWKKIDSAPLALLHKILVENPSARITIPDIKKDRWYNKPLKKGAKRPRVTSGGVSESPSGFSKHIQSNLDFSPVNSASSEENVKYSSSQPEPRTGLSLWDTSPSYIDKLVQGISFSQPTCPDHMLLNSQLLGTPGSSQNPWQRLVKRMTRFFTKLDADKSYQCLKETCEKLGYQWKKSCMNQVTISTTDRRNNKLIFKVNLLEMDDKILVDFRLSKGDGLEFKRHFLKIKGKLIDIVSSQKIWLPAT
B1: in the data set with GST-Cdc25C, P30307, the “GST-Cdc25 phosphatase activity (loss of the slower migrating phosphorylated forms of Cdc2 on gel)” value is “Prior phosphorylation of GST-Cdc25 by 6his-Chk1 leads to a dose-dependent reduction in GST-Cdc25 activity”; the “phosphorylation with gamma-32P ATP, SDS-PAGE and autoradiography” value is “GST-Cdc25 was phosphorylated by 6his-Chk1 and by 6his-hCDS1”.

B2: GST-Cdc25C (protein)
chain: T1 chain
B2: the “Cdc2 dephosphorylation by gel-mobility analysis” value with 6his-Cdc2, P06493 was “GST-Cdc25 catalyses a reduction in the slower migrating phosphorylated forms of Cdc2”.
